The record followed here is PMC6635489.

Common to all, as to details: glycan lost; control: wild type GluK3
Data set [1] is described as follows: whole-cell patch clamp, 30 mM glutamate, HEK293. For orientation: In patch-clamp work, channel activity is measured electrically.
Data set [2] can be described thus: surface biotinylation, anti-GluR6/7 blot, HEK293.
The nature of data set [3]: whole-cell dose-response, 30 µM-30 mM glutamate.
Data set [4] can be described thus: two-pulse 30 mM glutamate protocol, whole-cell patch clamp.

B1: GluK3: T249A/T397A (protein)
parent chain: MTAPWRRLRSLVWEYWAGFLVCAFWIPDSRGMPHVIRIGGIFEYADGPNAQVMNAEEHAFRFSANIINRNRTLLPNTTLTYDIQRIHFHDSFEATKKACDQLALGVVAIFGPSQGSCTNAVQSICNALEVPHIQLRWKHHPLDNKDTFYVNLYPDYASLSHAILDLVQSLKWRSATVVYDDSTGLIRLQELIMAPSRYNIRLKIRQLPIDSDDSRPLLKEMKRGREFRIIFDCSHTMAAQILKQAMAMGMMTEYYHFIFTTLDLYALDLEPYRYSGVNLTGFRILNVDNAHVSAIVEKWSMERLQAAPRAESGLLDGVMMTDAALLYDAVHIVSVCYQRASQMTVNSLQCHRHKPWRFGGRFMNFIKEAQWEGLTGRIVFNKTSGLRTDFDLDIISLKEDGLEKVGVWSPADGLNITEVAKGRGPNVTDSLTNRSLIVTTLLEEPFVMFRKSDRTLYGNDRFEGYCIDLLKELAHILGFSYEIRLVEDGKYGAQDDKGQWNGMVKELIDHKADLAVAPLTITHVREKAIDFSKPFMTLGVSILYRKPNGTNPSVFSFLNPLSPDIWMYVLLAYLGVSCVLFVIARFSPYEWYDAHPCNPGSEVVENNFTLLNSFWFGMGSLMQQGSELMPKALSTRIIGGIWWFFTLIIISSYTANLAAFLTVERMESPIDSADDLAKQTKIEYGAVKDGATMTFFKKSKISTFEKMWAFMSSKPSALVKNNEEGIQRTLTADYALLMESTTIEYITQRNCNLTQIGGLIDSKGYGIGTPMGSPYRDKITIAILQLQEEDKLHIMKEKWWRGSGCPEEENKEASALGIQKIGGIFIVLAAGLVLSVLVAVGEFIYKLRKTAEREQRSFCSTVADEIRFSLTCQRRLKHKPQPPMMVKTDAVINMHTFNDRRLPGKDSMSCSTSLAPVFP
For B1, the “other: desensitization time constant, other: mean weighted tau_des” value (from here on “other: desensitization time constant”) in data set [1] was “no change, 4.3 ± 0.2 vs 3.8 ± 0.5”. For the same protein, the localisation_or_trafficking result in data set [2] is reported as “no change”. For the same protein, in data set [3], the “other: glutamate EC50 of channel current, EC50” value (from here on “other: glutamate EC50”) was “decreases, 6.5 vs 9.5”.

B2: GluK3: T249A (protein)
parent chain: MTAPWRRLRSLVWEYWAGFLVCAFWIPDSRGMPHVIRIGGIFEYADGPNAQVMNAEEHAFRFSANIINRNRTLLPNTTLTYDIQRIHFHDSFEATKKACDQLALGVVAIFGPSQGSCTNAVQSICNALEVPHIQLRWKHHPLDNKDTFYVNLYPDYASLSHAILDLVQSLKWRSATVVYDDSTGLIRLQELIMAPSRYNIRLKIRQLPIDSDDSRPLLKEMKRGREFRIIFDCSHTMAAQILKQAMAMGMMTEYYHFIFTTLDLYALDLEPYRYSGVNLTGFRILNVDNAHVSAIVEKWSMERLQAAPRAESGLLDGVMMTDAALLYDAVHIVSVCYQRASQMTVNSLQCHRHKPWRFGGRFMNFIKEAQWEGLTGRIVFNKTSGLRTDFDLDIISLKEDGLEKVGVWSPADGLNITEVAKGRGPNVTDSLTNRSLIVTTLLEEPFVMFRKSDRTLYGNDRFEGYCIDLLKELAHILGFSYEIRLVEDGKYGAQDDKGQWNGMVKELIDHKADLAVAPLTITHVREKAIDFSKPFMTLGVSILYRKPNGTNPSVFSFLNPLSPDIWMYVLLAYLGVSCVLFVIARFSPYEWYDAHPCNPGSEVVENNFTLLNSFWFGMGSLMQQGSELMPKALSTRIIGGIWWFFTLIIISSYTANLAAFLTVERMESPIDSADDLAKQTKIEYGAVKDGATMTFFKKSKISTFEKMWAFMSSKPSALVKNNEEGIQRTLTADYALLMESTTIEYITQRNCNLTQIGGLIDSKGYGIGTPMGSPYRDKITIAILQLQEEDKLHIMKEKWWRGSGCPEEENKEASALGIQKIGGIFIVLAAGLVLSVLVAVGEFIYKLRKTAEREQRSFCSTVADEIRFSLTCQRRLKHKPQPPMMVKTDAVINMHTFNDRRLPGKDSMSCSTSLAPVFP
With B2, in data set [1], the “other: desensitization time constant” value was “no change, 3.7 ± 0.4 vs 3.8 ± 0.5”. Further, the localisation_or_trafficking result in data set [2] is listed as “no change”. For the same protein, the “other: glutamate EC50” value in data set [3] is listed as “decreases, 7.2 vs 9.5”.

B3: GluK3: T249A/S404A (protein)
parent chain: MTAPWRRLRSLVWEYWAGFLVCAFWIPDSRGMPHVIRIGGIFEYADGPNAQVMNAEEHAFRFSANIINRNRTLLPNTTLTYDIQRIHFHDSFEATKKACDQLALGVVAIFGPSQGSCTNAVQSICNALEVPHIQLRWKHHPLDNKDTFYVNLYPDYASLSHAILDLVQSLKWRSATVVYDDSTGLIRLQELIMAPSRYNIRLKIRQLPIDSDDSRPLLKEMKRGREFRIIFDCSHTMAAQILKQAMAMGMMTEYYHFIFTTLDLYALDLEPYRYSGVNLTGFRILNVDNAHVSAIVEKWSMERLQAAPRAESGLLDGVMMTDAALLYDAVHIVSVCYQRASQMTVNSLQCHRHKPWRFGGRFMNFIKEAQWEGLTGRIVFNKTSGLRTDFDLDIISLKEDGLEKVGVWSPADGLNITEVAKGRGPNVTDSLTNRSLIVTTLLEEPFVMFRKSDRTLYGNDRFEGYCIDLLKELAHILGFSYEIRLVEDGKYGAQDDKGQWNGMVKELIDHKADLAVAPLTITHVREKAIDFSKPFMTLGVSILYRKPNGTNPSVFSFLNPLSPDIWMYVLLAYLGVSCVLFVIARFSPYEWYDAHPCNPGSEVVENNFTLLNSFWFGMGSLMQQGSELMPKALSTRIIGGIWWFFTLIIISSYTANLAAFLTVERMESPIDSADDLAKQTKIEYGAVKDGATMTFFKKSKISTFEKMWAFMSSKPSALVKNNEEGIQRTLTADYALLMESTTIEYITQRNCNLTQIGGLIDSKGYGIGTPMGSPYRDKITIAILQLQEEDKLHIMKEKWWRGSGCPEEENKEASALGIQKIGGIFIVLAAGLVLSVLVAVGEFIYKLRKTAEREQRSFCSTVADEIRFSLTCQRRLKHKPQPPMMVKTDAVINMHTFNDRRLPGKDSMSCSTSLAPVFP
B3: the “other: desensitization time constant” value in data set [1] is listed as “no change, 4.1 ± 0.2 vs 3.8 ± 0.5”. Further, the localisation_or_trafficking entry in data set [2] is “no change”. In addition, in data set [4], the “other: time constant of recovery from desensitization, other: tau_rec” value is given as “decreases, 0.3 vs 0.9”. For the same protein, the “other: glutamate EC50” value in data set [3] is given as “decreases, 5.3 vs 9.5”.

B4: GluK3: N721A glycan knockout (Methods: T723A) (protein)
parent chain: MTAPWRRLRSLVWEYWAGFLVCAFWIPDSRGMPHVIRIGGIFEYADGPNAQVMNAEEHAFRFSANIINRNRTLLPNTTLTYDIQRIHFHDSFEATKKACDQLALGVVAIFGPSQGSCTNAVQSICNALEVPHIQLRWKHHPLDNKDTFYVNLYPDYASLSHAILDLVQSLKWRSATVVYDDSTGLIRLQELIMAPSRYNIRLKIRQLPIDSDDSRPLLKEMKRGREFRIIFDCSHTMAAQILKQAMAMGMMTEYYHFIFTTLDLYALDLEPYRYSGVNLTGFRILNVDNAHVSAIVEKWSMERLQAAPRAESGLLDGVMMTDAALLYDAVHIVSVCYQRASQMTVNSLQCHRHKPWRFGGRFMNFIKEAQWEGLTGRIVFNKTSGLRTDFDLDIISLKEDGLEKVGVWSPADGLNITEVAKGRGPNVTDSLTNRSLIVTTLLEEPFVMFRKSDRTLYGNDRFEGYCIDLLKELAHILGFSYEIRLVEDGKYGAQDDKGQWNGMVKELIDHKADLAVAPLTITHVREKAIDFSKPFMTLGVSILYRKPNGTNPSVFSFLNPLSPDIWMYVLLAYLGVSCVLFVIARFSPYEWYDAHPCNPGSEVVENNFTLLNSFWFGMGSLMQQGSELMPKALSTRIIGGIWWFFTLIIISSYTANLAAFLTVERMESPIDSADDLAKQTKIEYGAVKDGATMTFFKKSKISTFEKMWAFMSSKPSALVKNNEEGIQRTLTADYALLMESTTIEYITQRNCNLTQIGGLIDSKGYGIGTPMGSPYRDKITIAILQLQEEDKLHIMKEKWWRGSGCPEEENKEASALGIQKIGGIFIVLAAGLVLSVLVAVGEFIYKLRKTAEREQRSFCSTVADEIRFSLTCQRRLKHKPQPPMMVKTDAVINMHTFNDRRLPGKDSMSCSTSLAPVFP
Turning to B4, the localisation_or_trafficking result in data set [2] was “abolishes”.

B5: GluK3: T397A/S404A (protein)
parent chain: MTAPWRRLRSLVWEYWAGFLVCAFWIPDSRGMPHVIRIGGIFEYADGPNAQVMNAEEHAFRFSANIINRNRTLLPNTTLTYDIQRIHFHDSFEATKKACDQLALGVVAIFGPSQGSCTNAVQSICNALEVPHIQLRWKHHPLDNKDTFYVNLYPDYASLSHAILDLVQSLKWRSATVVYDDSTGLIRLQELIMAPSRYNIRLKIRQLPIDSDDSRPLLKEMKRGREFRIIFDCSHTMAAQILKQAMAMGMMTEYYHFIFTTLDLYALDLEPYRYSGVNLTGFRILNVDNAHVSAIVEKWSMERLQAAPRAESGLLDGVMMTDAALLYDAVHIVSVCYQRASQMTVNSLQCHRHKPWRFGGRFMNFIKEAQWEGLTGRIVFNKTSGLRTDFDLDIISLKEDGLEKVGVWSPADGLNITEVAKGRGPNVTDSLTNRSLIVTTLLEEPFVMFRKSDRTLYGNDRFEGYCIDLLKELAHILGFSYEIRLVEDGKYGAQDDKGQWNGMVKELIDHKADLAVAPLTITHVREKAIDFSKPFMTLGVSILYRKPNGTNPSVFSFLNPLSPDIWMYVLLAYLGVSCVLFVIARFSPYEWYDAHPCNPGSEVVENNFTLLNSFWFGMGSLMQQGSELMPKALSTRIIGGIWWFFTLIIISSYTANLAAFLTVERMESPIDSADDLAKQTKIEYGAVKDGATMTFFKKSKISTFEKMWAFMSSKPSALVKNNEEGIQRTLTADYALLMESTTIEYITQRNCNLTQIGGLIDSKGYGIGTPMGSPYRDKITIAILQLQEEDKLHIMKEKWWRGSGCPEEENKEASALGIQKIGGIFIVLAAGLVLSVLVAVGEFIYKLRKTAEREQRSFCSTVADEIRFSLTCQRRLKHKPQPPMMVKTDAVINMHTFNDRRLPGKDSMSCSTSLAPVFP
B5: the “other: desensitization time constant” value in data set [1] was “no change, 4.0 ± 0.4 vs 3.8 ± 0.5”. Besides, in data set [2], the localisation_or_trafficking entry is given as “no change”. Besides, the “other: time constant of recovery from desensitization, other: tau_rec” value in data set [4] is “decreases, 0.5 vs 0.9”. In data set [3], the “other: glutamate EC50” value is “decreases, 5.7 vs 9.5”.
